Assay results taken from paper PMC9844003.

Tests used:
[1] = molecular target: extracellular domain of CD47 fused to a His(×6)-Avi-tag (human); assay: ELISA; pH 6.2
[2] = molecular target: extracellular domain of CD47 fused to a His(×6)-Avi-tag (human); assay: ELISA; pH 6.4
[3] = molecular target: extracellular domain of CD47 fused to a His(×6)-Avi-tag (human); assay: ELISA; pH 6.6
[4] = molecular target: extracellular domain of CD47 fused to a His(×6)-Avi-tag (human); assay: ELISA; pH 6.8
[5] = molecular target: extracellular domain of CD47 fused to a His(×6)-Avi-tag (human); assay: ELISA; pH 7.0
[6] = molecular target: extracellular domain of CD47 fused to a His(×6)-Avi-tag (human); assay: ELISA; pH 7.2
[7] = molecular target: extracellular domain of CD47 fused to a His(×6)-Avi-tag (human); assay: ELISA; pH 7.4
[8] = molecular target: extracellular domain of CD47 fused to a His(×6)-Avi-tag (human); assay: ELISA; pH 7.6

Sequence of extracellular domain of CD47 fused to a His(×6)-Avi-tag (human) (Q08722 19-141): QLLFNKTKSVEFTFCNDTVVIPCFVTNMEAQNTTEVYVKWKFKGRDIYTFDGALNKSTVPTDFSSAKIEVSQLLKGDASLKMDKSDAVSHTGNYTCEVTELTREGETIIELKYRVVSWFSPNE

- EC50 [1]: 0.04 nM
- EC50 [2]: 0.04 nM
- EC50 [3]: 0.04 nM
- EC50 [4]: 0.03 nM
- EC50 [5]: 0.04 nM
- EC50 [6]: 0.03 nM
- EC50 [7]: 0.04 nM
- EC50 [8]: 0.04 nM
Substance: Hu5F9
